T1: Human TROP2 Protein, His Tag (Acro Biosystems) (human, UniProt P09758 27-274)
T1 construct: not shown: His tag
T1 sequence (looked up): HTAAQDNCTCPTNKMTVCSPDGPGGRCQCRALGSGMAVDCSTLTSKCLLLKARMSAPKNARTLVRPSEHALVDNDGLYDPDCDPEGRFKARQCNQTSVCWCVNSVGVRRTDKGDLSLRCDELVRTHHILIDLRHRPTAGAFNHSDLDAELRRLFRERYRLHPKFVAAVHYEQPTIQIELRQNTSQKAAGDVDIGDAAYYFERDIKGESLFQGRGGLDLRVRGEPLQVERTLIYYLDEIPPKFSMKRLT

T2: Human TROP2 Protein, His Tag (Acro Biosystems) (human, UniProt P09758 27-274)
T2 construct: Soluble analyte of the Octet assay; also called TACSTD2; not shown: His tag
T2 sequence (looked up): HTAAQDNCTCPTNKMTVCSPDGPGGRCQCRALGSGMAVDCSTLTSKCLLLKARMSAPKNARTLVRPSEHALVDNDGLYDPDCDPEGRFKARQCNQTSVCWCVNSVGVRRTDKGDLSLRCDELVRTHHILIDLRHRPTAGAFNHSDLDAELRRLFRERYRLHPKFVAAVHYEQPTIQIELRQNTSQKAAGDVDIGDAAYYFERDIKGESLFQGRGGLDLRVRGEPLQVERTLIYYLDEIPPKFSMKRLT


Tests used:
[1] = target: T1, Human TROP2 Protein, His Tag (Acro …); experiment: BLI (Octet)
[2] = target: T2, Human TROP2 Protein, His Tag (Acro …); experiment: BLI (Octet) [1/2]

Binder | binding result [1] | binding result [2]
MYT12295 (antibody, V domains shown, sacituzumab VH 32, 60 -> H) VH: QVQLQQSGSELKKPGASVKVSCKASGYTFTNHGMNWVKQAPGQGLKWMGWINTYTGEPTHTDDFKGRFAFSLDTSVSTAYLQISSLKADDTAVYFCARGGFGSSYWYFDVWGQGSLVTVSS VL: DIQLTQSPSSLSASVGDRVSITCKASQDVSIAVAWYQQKPGKAPKLLIYSASYRYTGVPDRFSGSGSGTDFTLTISSLQPEDFAVYYCQQHYITPLTFGAGTKVEIK | binds | –
MYT13240 (antibody, V domains shown, Sacituzumab HC-LC pairing variant; IgG) VH: QVQLQQSGSELKKPGASVKVSCKASGYTFTNHGMNWVKQAPGQGLKWMGWINTYTGEPTYTDDFKGRFAFSLDTSVSTAYLQISSLKADDTAVYFCARGGFGSSYWYFDVWGQGSLVTVSS VL: DIQLTQSPSSLSASVGDRVSITCKASQDVSIAVAWYQQKPGKAPKLLIYSHSYRYTGVPDRFSGSGSGTDFTLTISSLQPEDFAVYYCHQHYITPLTFGAGTKVEIK | – | binds
MYT13235 (antibody, V domains shown, Sacituzumab HC-LC pairing variant; IgG) VH: QVQLQQSGSELKKPGASVKVSCKASGYTFTNYGMNWVKQAPGQGLKWMGWINTYTGEPTYTHDFKGRFAFSLDTSVSTAYLQISSLKADDTAVYFCARGGFGSSYWYFDVWGQGSLVTVSS VL: DIQLTQSPSSLSASVGDRVSITCKASQDVSIAVAWYQQKPGKAPKLLIYSHHYRYTGVPDRFSGSGSGTDFTLTISSLQPEDFAVYYCQQHYITPLTFGAGTKVEIK | – | binds
MYT13245 (antibody, V domains shown, Sacituzumab HC-LC pairing variant; IgG) VH: QVQLQQSGSELKKPGASVKVSCKASGYTFTNYGMNWVKQAPGQGLKWMGWINTYTGEPTYTDDHKGRFAFSLDTSVSTAYLQISSLKADDTAVYFCARGGFGSSYWYFDVWGQGSLVTVSS VL: DIQLTQSPSSLSASVGDRVSITCKASQDVSIAVAWYQQKPGKAPKLLIYSHSYRYTGVPDRFSGSGSGTDFTLTISSLQPEDFAVYYCHQHYITPLTFGAGTKVEIK | – | binds
MYT12297 (antibody, V domains shown, sacituzumab VH 32, 63 -> H) VH: QVQLQQSGSELKKPGASVKVSCKASGYTFTNHGMNWVKQAPGQGLKWMGWINTYTGEPTYTDHFKGRFAFSLDTSVSTAYLQISSLKADDTAVYFCARGGFGSSYWYFDVWGQGSLVTVSS VL: DIQLTQSPSSLSASVGDRVSITCKASQDVSIAVAWYQQKPGKAPKLLIYSASYRYTGVPDRFSGSGSGTDFTLTISSLQPEDFAVYYCQQHYITPLTFGAGTKVEIK | binds | –
MYT13227 (antibody, V domains shown, Sacituzumab HC-LC pairing variant; IgG) VH: QVQLQQSGSELKKPGASVKVSCKASGYTFTNYGMNWVKQAPGQGLKWMGWINTYTGEPTYTHDFKGRFAFSLDTSVSTAYLQISSLKADDTAVYFCARGGFGSSYWYFDVWGQGSLVTVSS VL: DIQLTQSPSSLSASVGDRVSITCKASQDVSIAVAWYQQKPGKAPKLLIYSASYRYTGVPDRFSGSGSGTDFTLTISSLQPEDFAVYYCQQHYHTPLTFGAGTKVEIK | – | binds
MYT13248 (antibody, V domains shown, Sacituzumab HC-LC pairing variant; IgG) VH: QVQLQQSGSELKKPGASVKVSCKASGYTFTNHGMNWVKQAPGQGLKWMGWINTYTGEPTYTDDFKGRFAFSLDTSVSTAYLQISSLKADDTAVYFCARGGFGSSYWYFDVWGQGSLVTVSS VL: DIQLTQSPSSLSASVGDRVSITCKASQDVSIAVAWYQQKPGKAPKLLIYSAHYRYTGVPDRFSGSGSGTDFTLTISSLQPEDFAVYYCQQHYHTPLTFGAGTKVEIK | – | binds
MYT13234 (antibody, V domains shown, Sacituzumab HC-LC pairing variant; IgG) VH: QVQLQQSGSELKKPGASVKVSCKASGYTFTNYGMNWVKQAPGQGLKWMGWINTYTGEPTHTDDFKGRFAFSLDTSVSTAYLQISSLKADDTAVYFCARGGFGSSYWYFDVWGQGSLVTVSS VL: DIQLTQSPSSLSASVGDRVSITCKASQDVSIAVAWYQQKPGKAPKLLIYSHHYRYTGVPDRFSGSGSGTDFTLTISSLQPEDFAVYYCQQHYITPLTFGAGTKVEIK | – | binds
MYT12298 (antibody, V domains shown, sacituzumab VH 32, 64 -> H) VH: QVQLQQSGSELKKPGASVKVSCKASGYTFTNHGMNWVKQAPGQGLKWMGWINTYTGEPTYTDDHKGRFAFSLDTSVSTAYLQISSLKADDTAVYFCARGGFGSSYWYFDVWGQGSLVTVSS VL: DIQLTQSPSSLSASVGDRVSITCKASQDVSIAVAWYQQKPGKAPKLLIYSASYRYTGVPDRFSGSGSGTDFTLTISSLQPEDFAVYYCQQHYITPLTFGAGTKVEIK | binds | –
MYT13230 (antibody, V domains shown, Sacituzumab HC-LC pairing variant; IgG) VH: QVQLQQSGSELKKPGASVKVSCKASGYTFTNYGMNWVKQAPGQGLKWMGWINTYTGEPTYTDDFHGRFAFSLDTSVSTAYLQISSLKADDTAVYFCARGGFGSSYWYFDVWGQGSLVTVSS VL: DIQLTQSPSSLSASVGDRVSITCKASQDVSIAVAWYQQKPGKAPKLLIYSASYRYTGVPDRFSGSGSGTDFTLTISSLQPEDFAVYYCQQHYHTPLTFGAGTKVEIK | – | binds
MYT13236 (antibody, V domains shown, Sacituzumab HC-LC pairing variant; IgG) VH: QVQLQQSGSELKKPGASVKVSCKASGYTFTNYGMNWVKQAPGQGLKWMGWINTYTGEPTYTDHFKGRFAFSLDTSVSTAYLQISSLKADDTAVYFCARGGFGSSYWYFDVWGQGSLVTVSS VL: DIQLTQSPSSLSASVGDRVSITCKASQDVSIAVAWYQQKPGKAPKLLIYSHHYRYTGVPDRFSGSGSGTDFTLTISSLQPEDFAVYYCQQHYITPLTFGAGTKVEIK | – | binds
MYT13231 (antibody, V domains shown, Sacituzumab HC-LC pairing variant; IgG) VH: QVQLQQSGSELKKPGASVKVSCKASGYTFTNYGMNWVKQAPGQGLKWMGWINTYTGEPTYTDDFKHRFAFSLDTSVSTAYLQISSLKADDTAVYFCARGGFGSSYWYFDVWGQGSLVTVSS VL: DIQLTQSPSSLSASVGDRVSITCKASQDVSIAVAWYQQKPGKAPKLLIYSASYRYTGVPDRFSGSGSGTDFTLTISSLQPEDFAVYYCQQHYHTPLTFGAGTKVEIK | – | binds
MYT13243 (antibody, V domains shown, Sacituzumab HC-LC pairing variant; IgG) VH: QVQLQQSGSELKKPGASVKVSCKASGYTFTNYGMNWVKQAPGQGLKWMGWINTYTGEPTYTHDFKGRFAFSLDTSVSTAYLQISSLKADDTAVYFCARGGFGSSYWYFDVWGQGSLVTVSS VL: DIQLTQSPSSLSASVGDRVSITCKASQDVSIAVAWYQQKPGKAPKLLIYSHSYRYTGVPDRFSGSGSGTDFTLTISSLQPEDFAVYYCHQHYITPLTFGAGTKVEIK | – | binds
MYT13242 (antibody, V domains shown, Sacituzumab HC-LC pairing variant; IgG) VH: QVQLQQSGSELKKPGASVKVSCKASGYTFTNYGMNWVKQAPGQGLKWMGWINTYTGEPTHTDDFKGRFAFSLDTSVSTAYLQISSLKADDTAVYFCARGGFGSSYWYFDVWGQGSLVTVSS VL: DIQLTQSPSSLSASVGDRVSITCKASQDVSIAVAWYQQKPGKAPKLLIYSHSYRYTGVPDRFSGSGSGTDFTLTISSLQPEDFAVYYCHQHYITPLTFGAGTKVEIK | – | binds
MYT13228 (antibody, V domains shown, Sacituzumab HC-LC pairing variant; IgG) VH: QVQLQQSGSELKKPGASVKVSCKASGYTFTNYGMNWVKQAPGQGLKWMGWINTYTGEPTYTDHFKGRFAFSLDTSVSTAYLQISSLKADDTAVYFCARGGFGSSYWYFDVWGQGSLVTVSS VL: DIQLTQSPSSLSASVGDRVSITCKASQDVSIAVAWYQQKPGKAPKLLIYSASYRYTGVPDRFSGSGSGTDFTLTISSLQPEDFAVYYCQQHYHTPLTFGAGTKVEIK | – | binds
MYT13246 (antibody, V domains shown, Sacituzumab HC-LC pairing variant; IgG) VH: QVQLQQSGSELKKPGASVKVSCKASGYTFTNYGMNWVKQAPGQGLKWMGWINTYTGEPTYTDDFHGRFAFSLDTSVSTAYLQISSLKADDTAVYFCARGGFGSSYWYFDVWGQGSLVTVSS VL: DIQLTQSPSSLSASVGDRVSITCKASQDVSIAVAWYQQKPGKAPKLLIYSHSYRYTGVPDRFSGSGSGTDFTLTISSLQPEDFAVYYCHQHYITPLTFGAGTKVEIK | – | binds
MYT13244 (antibody, V domains shown, Sacituzumab HC-LC pairing variant; IgG) VH: QVQLQQSGSELKKPGASVKVSCKASGYTFTNYGMNWVKQAPGQGLKWMGWINTYTGEPTYTDHFKGRFAFSLDTSVSTAYLQISSLKADDTAVYFCARGGFGSSYWYFDVWGQGSLVTVSS VL: DIQLTQSPSSLSASVGDRVSITCKASQDVSIAVAWYQQKPGKAPKLLIYSHSYRYTGVPDRFSGSGSGTDFTLTISSLQPEDFAVYYCHQHYITPLTFGAGTKVEIK | – | binds
MYT13226 (antibody, V domains shown, Sacituzumab HC-LC pairing variant; IgG) VH: QVQLQQSGSELKKPGASVKVSCKASGYTFTNYGMNWVKQAPGQGLKWMGWINTYTGEPTHTDDFKGRFAFSLDTSVSTAYLQISSLKADDTAVYFCARGGFGSSYWYFDVWGQGSLVTVSS VL: DIQLTQSPSSLSASVGDRVSITCKASQDVSIAVAWYQQKPGKAPKLLIYSASYRYTGVPDRFSGSGSGTDFTLTISSLQPEDFAVYYCQQHYHTPLTFGAGTKVEIK | – | binds
MYT13229 (antibody, V domains shown, Sacituzumab HC-LC pairing variant; IgG) VH: QVQLQQSGSELKKPGASVKVSCKASGYTFTNYGMNWVKQAPGQGLKWMGWINTYTGEPTYTDDHKGRFAFSLDTSVSTAYLQISSLKADDTAVYFCARGGFGSSYWYFDVWGQGSLVTVSS VL: DIQLTQSPSSLSASVGDRVSITCKASQDVSIAVAWYQQKPGKAPKLLIYSASYRYTGVPDRFSGSGSGTDFTLTISSLQPEDFAVYYCQQHYHTPLTFGAGTKVEIK | – | binds
MYT13247 (antibody, V domains shown, Sacituzumab HC-LC pairing variant; IgG) VH: QVQLQQSGSELKKPGASVKVSCKASGYTFTNYGMNWVKQAPGQGLKWMGWINTYTGEPTYTDDFKHRFAFSLDTSVSTAYLQISSLKADDTAVYFCARGGFGSSYWYFDVWGQGSLVTVSS VL: DIQLTQSPSSLSASVGDRVSITCKASQDVSIAVAWYQQKPGKAPKLLIYSHSYRYTGVPDRFSGSGSGTDFTLTISSLQPEDFAVYYCHQHYITPLTFGAGTKVEIK | – | binds

Reference: patent US20260274985A1 (MYTHIC THERAPEUTICS, published 2026)
